Numbering of substitutions follows the chain as printed.
T1: ESX (full-length, His-tagged) (Homo sapiens, UniProt P78545 SEQ:1-371)
T1 sequence: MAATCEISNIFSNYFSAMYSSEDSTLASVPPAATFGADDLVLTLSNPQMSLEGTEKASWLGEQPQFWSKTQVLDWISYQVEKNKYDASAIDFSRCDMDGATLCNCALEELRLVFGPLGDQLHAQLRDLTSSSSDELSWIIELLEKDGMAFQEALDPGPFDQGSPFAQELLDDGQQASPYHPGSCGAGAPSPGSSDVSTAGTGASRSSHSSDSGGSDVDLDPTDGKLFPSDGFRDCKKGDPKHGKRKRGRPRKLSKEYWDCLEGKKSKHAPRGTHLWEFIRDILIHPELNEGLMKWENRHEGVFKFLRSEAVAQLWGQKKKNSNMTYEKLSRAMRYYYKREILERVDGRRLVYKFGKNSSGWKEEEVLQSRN

T2: ESX (271-371, ETS DNA-binding domain) (Homo sapiens, UniProt P78545 SEQ:271-371)
T2 sequence: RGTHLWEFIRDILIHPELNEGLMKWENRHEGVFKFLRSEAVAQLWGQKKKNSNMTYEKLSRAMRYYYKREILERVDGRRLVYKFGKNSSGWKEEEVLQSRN

B1: TA5 WT (HER2/neu promoter -50 to -20) (dsDNA)
DNA 1: GGAGGAGGGCTGCTTGAGGAAGTATAAGAAT
DNA 2: ATTCTTATACTTCCTCAAGCAGCCCTCCTCC
B2: TA5 m2 (dsDNA)
DNA 1: B1 DNA 1 with A17C
DNA 2: B1 DNA 2 with T15G
B3: TA5 m3 (dsDNA)
DNA 1: B1 DNA 1 with G19A, A20G
DNA 2: B1 DNA 2 with T12C, C13T
B4: TA5 m4 (dsDNA)
DNA 1: B1 DNA 1 with G18C, G19C
DNA 2: B1 DNA 2 with C13G, C14G
B5: TA5 m5 (dsDNA)
DNA 1: B1 DNA 1 with T23C
DNA 2: B1 DNA 2 with A9G
B6: TA5 m1 (dsDNA)
DNA 1: B1 DNA 1 with G9T, C10A
DNA 2: B1 DNA 2 with G22T, C23A

Experiments:
[1] = biological target: T1, ESX (full-length, His-tagged); assay: EMSA; high-affinity sequence-specific; ~1 ng protein, 0.3 pmol probe; details: tags: His-tag (pRSETA), E. coli BL21(DE3)pLysS; label: end-labeled
Experimental: (§1) Electrophoretic mobility shift assay (EMSA) was performed as previously described (Scott et al. (1994) *J. Biol. Chem.* 269: 19848–19858), using approximately one ng of ESX protein per condition and 0.3 pmol of end-labeled TA5 probe (+cold competitor). TA5 is a duplexed 31-mer oligonucleotide from the HER2/neu promoter, extending from −50 bp to −20 bp relative to the major transcriptional start site, that includes an Ets response element.

[2] = biological target: T2, ESX (271-371, ETS DNA-binding domain); assay: EMSA; affinity comparable to full-length; details: label: end-labeled
[3] = biological target: T1, ESX (full-length, His-tagged); assay: competition; flanking mutation; relatively effective cold competitor at 50-fold excess; details: tags: His-tag (pRSETA), E. coli BL21(DE3)pLysS
Experimental: (§2) Five different competing unlabeled (cold) oligonucleotides containing specific mutations in the wild-type (WT) TA5 (SEQ ID NO:32) sequence, m1–m5 (SEQ ID NOs:33–37) were added at 50-fold molar excess; gel lanes containing the excess cold competitors are labeled. […] The antisense strand sequence as shown (~40 bp to ~26 bp upstream of major transcriptional start site in HER2/neu promoter) is marked with asterisk at the hypersensitivity site within Ets response element (GGAA on sense strand). FIGS. 8c and 8d show the induction of CAT activity from two different ETS-responsive reporter constructs (p3TA5-BLCAT5, pHER2-CAT) in COS cells cotransfected with an ESX expression plasmid (pcDNAI-ESX). Mutant reporter plasmids (p3TA5P-BLCAT5, pHER2m-CAT) are identical to their normal counterparts except for alterations in the Ets response element within the TA5 sequence (GGAA to GAGA and GGAA to TTAA, respectively).
as §1

[4] = biological target: T1, ESX (full-length, His-tagged); assay: competition; GGAA core mutation; fails to compete at 50-fold excess; details: tags: His-tag (pRSETA), E. coli BL21(DE3)pLysS
Experimental: as §2, §1

Row | Binder | binding result [3] | binding result [4] | also measured
1 | B1 |  |  | binding result [1]: binds; binding result [2]: binds
2 | B2 | binds |  | 
3 | B3 |  | no binding | 
4 | B4 |  | no binding | 
5 | B5 | binds |  | 
6 | B6 | binds |  | 

Reference: patent US7125969, “ETS-related gene overexpressed in human breast and epithelial cancers” (The Regents of the University of California)
